From patent publication US20100184658A1 (published 2010)

Columns and labels:
Assay in all cases: cell-based or functional assay
PLK1 Polo-like kinase 1 = PLK1 Polo-like kinase 1 (UniProt P53350 1-603, limits assumed)
[1] = molecular target: RPS6KB1 (p70S6K) Ribosomal protein S6 kinase, 70 kDa, polypeptide 1 (human (printed as (h)), UniProt P23443 1-421, limits assumed)
PRKCB2 (PKC beta II) = PRKCB2 (PKC beta II) (human (printed as (h)), UniProt P05771-2 1-673)
PRKG2 (PKG2) = molecular target: T1, PRKG2 (PKG2) (UniProt Q13237 1-762, limits assumed)
T1 sequence (looked up): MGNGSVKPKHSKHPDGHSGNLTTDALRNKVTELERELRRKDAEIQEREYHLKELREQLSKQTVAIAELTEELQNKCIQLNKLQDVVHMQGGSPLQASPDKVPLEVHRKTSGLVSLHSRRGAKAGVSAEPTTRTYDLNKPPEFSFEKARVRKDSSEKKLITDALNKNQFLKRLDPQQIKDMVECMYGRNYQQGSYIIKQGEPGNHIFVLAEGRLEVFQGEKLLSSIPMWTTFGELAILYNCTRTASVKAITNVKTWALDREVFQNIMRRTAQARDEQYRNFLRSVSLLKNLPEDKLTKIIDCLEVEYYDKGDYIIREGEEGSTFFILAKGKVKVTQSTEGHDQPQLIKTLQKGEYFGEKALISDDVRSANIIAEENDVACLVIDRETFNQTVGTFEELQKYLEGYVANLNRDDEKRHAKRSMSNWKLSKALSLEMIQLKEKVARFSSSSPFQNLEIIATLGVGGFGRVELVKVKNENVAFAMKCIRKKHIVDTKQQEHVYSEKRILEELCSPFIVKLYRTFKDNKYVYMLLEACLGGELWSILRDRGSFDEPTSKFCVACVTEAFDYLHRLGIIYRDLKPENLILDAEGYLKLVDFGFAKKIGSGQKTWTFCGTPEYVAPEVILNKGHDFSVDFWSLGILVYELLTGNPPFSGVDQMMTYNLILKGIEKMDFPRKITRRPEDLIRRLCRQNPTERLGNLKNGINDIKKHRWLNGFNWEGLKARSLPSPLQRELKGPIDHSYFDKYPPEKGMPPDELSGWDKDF

[2] = molecular target: MAP3K8 (COT) Mitogen-activated protein kinase kinase kinase 8 (UniProt P41279 30-397, limits assumed)
Sequence of MAP3K8 (COT) Mitogen-activated protein kinase kinase kinase 8 (P41279 30-397 limits assumed): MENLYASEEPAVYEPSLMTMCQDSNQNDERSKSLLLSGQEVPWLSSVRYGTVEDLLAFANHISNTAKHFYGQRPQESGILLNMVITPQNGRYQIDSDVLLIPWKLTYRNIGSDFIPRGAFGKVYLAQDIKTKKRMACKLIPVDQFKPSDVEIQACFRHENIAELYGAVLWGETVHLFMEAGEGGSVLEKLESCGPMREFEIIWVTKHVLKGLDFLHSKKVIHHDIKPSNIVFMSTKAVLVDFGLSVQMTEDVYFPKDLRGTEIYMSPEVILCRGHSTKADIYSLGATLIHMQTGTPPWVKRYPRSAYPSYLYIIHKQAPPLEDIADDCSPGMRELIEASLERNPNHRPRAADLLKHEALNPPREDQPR

IRAK4 (interleukin-1 …) = molecular target: T2, IRAK4 (interleukin-1 receptor-associated kinase 4) (UniProt Q9NWZ3 1-460, limits assumed)
T2 sequence (looked up): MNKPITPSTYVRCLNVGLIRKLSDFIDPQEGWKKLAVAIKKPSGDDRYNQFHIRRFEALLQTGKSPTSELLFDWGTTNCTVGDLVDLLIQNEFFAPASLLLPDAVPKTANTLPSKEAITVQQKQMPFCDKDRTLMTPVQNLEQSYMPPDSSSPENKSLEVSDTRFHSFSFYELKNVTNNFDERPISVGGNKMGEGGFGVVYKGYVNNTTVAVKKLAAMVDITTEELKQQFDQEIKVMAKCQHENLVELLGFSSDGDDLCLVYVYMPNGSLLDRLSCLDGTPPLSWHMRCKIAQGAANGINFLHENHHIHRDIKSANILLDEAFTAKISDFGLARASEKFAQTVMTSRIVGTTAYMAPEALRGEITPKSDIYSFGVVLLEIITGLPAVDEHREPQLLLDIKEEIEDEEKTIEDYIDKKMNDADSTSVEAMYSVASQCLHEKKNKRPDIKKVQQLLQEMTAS

PIM1 Pim-1 oncogene = PIM1 Pim-1 oncogene (UniProt P11309 1-313, limits assumed)
Sequence of PIM1 Pim-1 oncogene (P11309 whole entry): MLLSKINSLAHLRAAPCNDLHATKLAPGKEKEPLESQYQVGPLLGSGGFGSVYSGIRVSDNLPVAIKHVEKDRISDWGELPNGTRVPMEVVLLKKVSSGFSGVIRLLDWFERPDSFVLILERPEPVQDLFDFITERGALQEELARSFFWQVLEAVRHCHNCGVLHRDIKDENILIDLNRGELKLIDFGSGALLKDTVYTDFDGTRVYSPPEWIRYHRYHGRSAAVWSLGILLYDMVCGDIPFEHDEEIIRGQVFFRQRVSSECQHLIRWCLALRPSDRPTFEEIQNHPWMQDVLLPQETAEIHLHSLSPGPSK

PRKD1 (PKC mu) = molecular target: T3, PRKD1 (PKC mu) (UniProt Q15139 1-912, limits assumed)
T3 sequence (looked up): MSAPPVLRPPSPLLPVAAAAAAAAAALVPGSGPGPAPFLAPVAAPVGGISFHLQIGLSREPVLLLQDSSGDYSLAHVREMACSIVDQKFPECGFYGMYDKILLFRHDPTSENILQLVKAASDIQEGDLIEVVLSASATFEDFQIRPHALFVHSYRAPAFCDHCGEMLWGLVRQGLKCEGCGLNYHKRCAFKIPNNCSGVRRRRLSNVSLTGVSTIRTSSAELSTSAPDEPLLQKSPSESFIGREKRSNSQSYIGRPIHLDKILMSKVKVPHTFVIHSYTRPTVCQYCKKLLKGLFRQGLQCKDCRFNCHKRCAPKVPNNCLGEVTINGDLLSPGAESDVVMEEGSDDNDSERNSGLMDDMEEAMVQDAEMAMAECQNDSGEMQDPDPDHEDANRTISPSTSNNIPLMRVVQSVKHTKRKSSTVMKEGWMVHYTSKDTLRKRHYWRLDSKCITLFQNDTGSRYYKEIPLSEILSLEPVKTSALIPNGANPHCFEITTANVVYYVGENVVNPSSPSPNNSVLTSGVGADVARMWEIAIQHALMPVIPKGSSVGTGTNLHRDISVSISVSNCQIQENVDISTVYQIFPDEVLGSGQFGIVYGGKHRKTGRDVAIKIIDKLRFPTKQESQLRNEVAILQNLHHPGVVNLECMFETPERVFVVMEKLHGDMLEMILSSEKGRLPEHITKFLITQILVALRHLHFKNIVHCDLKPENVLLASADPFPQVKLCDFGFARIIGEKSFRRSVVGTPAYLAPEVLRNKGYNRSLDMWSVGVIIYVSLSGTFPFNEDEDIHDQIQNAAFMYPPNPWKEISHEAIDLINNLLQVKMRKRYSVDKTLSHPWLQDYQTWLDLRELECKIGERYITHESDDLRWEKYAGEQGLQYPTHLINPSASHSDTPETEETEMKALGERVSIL
Note: test concentration or dose not given here.

Sequence of PRKCB2 (PKC beta II) (human (printed as (h)), UniProt P05771-2 1-673) (P05771 other isoform, or with tags, fused parts or gaps limits assumed): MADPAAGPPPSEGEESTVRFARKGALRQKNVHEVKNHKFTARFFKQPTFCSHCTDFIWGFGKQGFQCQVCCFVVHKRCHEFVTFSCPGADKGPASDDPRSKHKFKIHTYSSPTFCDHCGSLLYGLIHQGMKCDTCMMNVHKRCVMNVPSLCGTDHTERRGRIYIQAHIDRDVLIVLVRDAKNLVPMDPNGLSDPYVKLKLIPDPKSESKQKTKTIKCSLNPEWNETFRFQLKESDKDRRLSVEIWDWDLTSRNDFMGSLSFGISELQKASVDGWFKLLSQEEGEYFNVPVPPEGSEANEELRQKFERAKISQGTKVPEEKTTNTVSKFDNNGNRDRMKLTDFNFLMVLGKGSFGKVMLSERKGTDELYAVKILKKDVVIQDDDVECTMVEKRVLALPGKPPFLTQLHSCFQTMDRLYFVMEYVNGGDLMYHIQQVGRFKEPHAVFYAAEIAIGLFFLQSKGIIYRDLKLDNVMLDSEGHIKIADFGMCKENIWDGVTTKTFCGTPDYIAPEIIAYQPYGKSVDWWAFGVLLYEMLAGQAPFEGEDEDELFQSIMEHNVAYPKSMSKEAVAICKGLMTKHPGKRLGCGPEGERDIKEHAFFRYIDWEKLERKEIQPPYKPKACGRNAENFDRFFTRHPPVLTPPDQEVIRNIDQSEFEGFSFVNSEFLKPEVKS
Sequence of RPS6KB1 (p70S6K) Ribosomal protein S6 kinase, 70 kDa, polypeptide 1 (human (printed as (h)), UniProt P23443 1-421, limits assumed) (P23443 1-421 limits assumed): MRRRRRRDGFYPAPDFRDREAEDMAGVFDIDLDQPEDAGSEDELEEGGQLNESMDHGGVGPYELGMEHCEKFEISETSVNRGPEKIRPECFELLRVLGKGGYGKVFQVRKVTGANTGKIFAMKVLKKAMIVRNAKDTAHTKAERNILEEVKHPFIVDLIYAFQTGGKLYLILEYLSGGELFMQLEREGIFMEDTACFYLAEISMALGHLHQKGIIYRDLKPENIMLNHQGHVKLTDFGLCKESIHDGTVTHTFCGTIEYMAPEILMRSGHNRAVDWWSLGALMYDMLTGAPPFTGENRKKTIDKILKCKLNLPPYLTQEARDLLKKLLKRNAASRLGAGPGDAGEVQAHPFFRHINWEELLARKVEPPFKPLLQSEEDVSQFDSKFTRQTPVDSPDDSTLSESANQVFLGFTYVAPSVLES
Sequence of PLK1 Polo-like kinase 1 (P53350 whole entry): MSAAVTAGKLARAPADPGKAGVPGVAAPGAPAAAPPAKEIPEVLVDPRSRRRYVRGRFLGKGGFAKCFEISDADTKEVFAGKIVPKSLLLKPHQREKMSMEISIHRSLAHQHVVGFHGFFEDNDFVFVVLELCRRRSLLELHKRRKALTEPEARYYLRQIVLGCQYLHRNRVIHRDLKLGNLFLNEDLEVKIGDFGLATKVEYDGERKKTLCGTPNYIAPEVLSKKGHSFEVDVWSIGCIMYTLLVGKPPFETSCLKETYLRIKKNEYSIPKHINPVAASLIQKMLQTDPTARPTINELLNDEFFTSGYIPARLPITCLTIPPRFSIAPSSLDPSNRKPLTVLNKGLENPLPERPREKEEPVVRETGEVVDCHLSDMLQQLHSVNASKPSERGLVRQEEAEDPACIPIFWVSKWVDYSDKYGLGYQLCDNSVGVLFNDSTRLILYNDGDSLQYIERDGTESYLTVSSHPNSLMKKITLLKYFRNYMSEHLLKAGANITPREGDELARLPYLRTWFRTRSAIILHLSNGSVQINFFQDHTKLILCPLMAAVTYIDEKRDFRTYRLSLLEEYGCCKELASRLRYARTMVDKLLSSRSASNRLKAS

## SGRPPMIVWFNRPFLIAVSHTHGQTILFMAKVINPVGA [D3 peptide]
PLK1 Polo-like kinase 1
  % Inhibition mean: 51%
[1]
  % Inhibition mean: 100%
PRKCB2 (PKC beta II)
  % Inhibition mean: 61.6%
PRKG2 (PKG2)
  % Inhibition mean: 101%
[2]
  % Inhibition mean: 98.6%
IRAK4 (interleukin-1 …)
  % Inhibition mean: 96%
PIM1 Pim-1 oncogene
  % Inhibition mean: 89%
PRKD1 (PKC mu)
  % Inhibition mean: 80.6%
